What all share (conditions): tags: NLS
Data set [1] addresses T1, Cas12Max (xCas12i-N243R, v1.1) (N243R).
T1 chain: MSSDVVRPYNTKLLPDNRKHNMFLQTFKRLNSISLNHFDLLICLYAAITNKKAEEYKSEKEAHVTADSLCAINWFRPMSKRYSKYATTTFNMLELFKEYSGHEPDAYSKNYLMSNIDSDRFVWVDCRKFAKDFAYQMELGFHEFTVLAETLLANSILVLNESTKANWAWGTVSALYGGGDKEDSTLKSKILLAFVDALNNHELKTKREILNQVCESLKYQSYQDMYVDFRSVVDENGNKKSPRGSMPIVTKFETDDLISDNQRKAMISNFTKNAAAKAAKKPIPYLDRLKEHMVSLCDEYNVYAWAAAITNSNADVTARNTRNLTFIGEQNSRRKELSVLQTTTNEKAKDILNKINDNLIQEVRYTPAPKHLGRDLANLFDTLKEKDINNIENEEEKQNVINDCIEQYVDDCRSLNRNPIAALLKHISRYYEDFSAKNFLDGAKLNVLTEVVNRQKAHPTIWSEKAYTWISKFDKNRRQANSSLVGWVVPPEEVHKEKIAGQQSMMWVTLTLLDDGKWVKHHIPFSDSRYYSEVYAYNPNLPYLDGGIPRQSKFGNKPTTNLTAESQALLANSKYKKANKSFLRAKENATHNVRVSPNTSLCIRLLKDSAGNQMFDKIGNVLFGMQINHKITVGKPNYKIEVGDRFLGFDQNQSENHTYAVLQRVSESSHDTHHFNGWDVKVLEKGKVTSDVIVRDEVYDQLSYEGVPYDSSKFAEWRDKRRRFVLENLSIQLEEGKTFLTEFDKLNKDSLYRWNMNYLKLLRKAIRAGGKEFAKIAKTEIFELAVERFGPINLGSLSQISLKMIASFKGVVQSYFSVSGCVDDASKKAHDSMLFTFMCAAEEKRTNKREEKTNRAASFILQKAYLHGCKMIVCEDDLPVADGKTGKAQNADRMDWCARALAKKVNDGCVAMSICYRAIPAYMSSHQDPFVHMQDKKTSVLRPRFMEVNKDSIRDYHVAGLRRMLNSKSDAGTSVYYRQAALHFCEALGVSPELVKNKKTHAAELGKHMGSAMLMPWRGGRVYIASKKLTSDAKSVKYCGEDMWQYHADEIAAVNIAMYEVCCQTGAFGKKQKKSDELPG
The experiment in a line: cell_activity; PAM TTTG; on-target.

In data set [2] the target is T2, xCas12i v5.3 (N243R,D892R).
T2 chain: T1 chain with D892R
Kind of data set: cell_activity; PAM TTTG; on-target.

The target of data set [3] is T2, xCas12i v5.3. The experiment in a line: cell_activity; PAM TTTG; OT-1. On the procedure: HEK293T cells were cultured in 24-well tissue culture plates according to standard methods for 12 hours, before the reporter and expression plasmids were co-transfected into the cells using standard polyethyleneimine (PEI) transfection. The transfected cells were then cultured at 37° C. under 5% CO₂ for 48 hours. Then the cultured cells were analyzed by flow cytometry for BFP, EGFP, and mCherry fluorescent signals. A “blank” control group was also set up, where only the reporter plasmid was transfected, and no expression plasmid was introduced.
A dual plasmid fluorescent reporter system for evaluation of off-target dsDNA cleavage activity (off-target reporter system; referring to “Off-Target Reporter” in FIG. 1B) was established, which was similar to the dual plasmid fluorescent reporter system in Example 6 for evaluation of (on-target) dsDNA cleavage activity, except that the insertion sequence of the EGxxxxFP coding sequence contains an TTR off-target protospacer sequence (one of SEQ ID NOs: 127-129) containing one or more mismatches (bold, underlined) with a TTR-targeting spacer sequence (SEQ ID NO: 130) in the gRNA, rather than containing a TTR on-target protospacer sequence (SEQ ID NO: 130; which is the same as SEQ ID NO: 107 in Example 5); DR-T1 sequence (SEQ ID NO: 451) was used. To save drafting, the on-target protospacer sequence/spacer sequence in Table 7 refer to both the protospacer sequence (a DNA sequence) and the corresponding spacer sequence (an RNA sequence) with any “T” in the sequence when referring to a protospacer sequences standing for “T” and when referring to a such spacer sequence standing for “U”, although the assigned SEQ ID NO: 130 in the sequence listing is annotated as DNA.

Data on 2 molecules can be found in US20250283063, “NOVEL CRISPR-CAS12I SYSTEMS AND USES THEREOF” (HUIDAGENE THERAPEUTICS (SINGAPORE) PTE. LTD., published 2025).

Positions count from the first letter of the chain named.

B1: TTR.2 crRNA ; TTR ON.1 (ssRNA ; dsDNA)
RNA: AUGACUCAGAAAUGUGUCCCCAGUUGACACUAGAAGGGAUAUACAAAGUGGA
DNA 1: TTTGTAGAAGGGATATACAAAGTGGA
DNA 2: TCCACTTTGTATATCCCTTCTACAAA
On to B1, for which the activity in data set [1] amounted to 73.8%; in data set [2], 75.8%.

B2: TTR.2 crRNA ; TTR OT.1 (ssRNA ; dsDNA)
RNA: B1 RNA
DNA 1: TTTGTAGAAGGGATATAGAAAGTATC
DNA 2: GATACTTTCTATATCCCTTCTACAAA
As to B2, the activity in data set [3] was found to be 6.66%.
